The target of data set [1] is CRD-BP (IMP1) (mouse) (UniProt O88477). In words: EMSA. Conditions: EMSA: 5 mM Tris-Cl pH 7.4, 2.5 mM EDTA, 2 mM DTT, 5% glycerol, 0.1 mg/ml BSA, 0.5 mg/ml yeast tRNA, 5 U RNasin; 30 C with ice steps; 40 nM RNA probe.
Data set [2] has the same target. The data set can be described thus: competition. The settings on record: EMSA: 5 mM Tris-Cl pH 7.4, 2.5 mM EDTA, 2 mM DTT, 5% glycerol, 0.1 mg/ml BSA, 0.5 mg/ml yeast tRNA, 5 U RNasin; 30 C with ice steps; 40 nM RNA probe.

In paper PMC3951440, “Assessing Specific Oligonucleotides and Small Molecule Antibiotics for the Ability to Inhibit the CRD-BP-CD44 RNA Interaction” (PLoS ONE, 2014) one finds binding signal, binding and Kd data, which are given here for five sequences.

Sequence of CRD-BP (IMP1) (mouse) (O88477 whole entry): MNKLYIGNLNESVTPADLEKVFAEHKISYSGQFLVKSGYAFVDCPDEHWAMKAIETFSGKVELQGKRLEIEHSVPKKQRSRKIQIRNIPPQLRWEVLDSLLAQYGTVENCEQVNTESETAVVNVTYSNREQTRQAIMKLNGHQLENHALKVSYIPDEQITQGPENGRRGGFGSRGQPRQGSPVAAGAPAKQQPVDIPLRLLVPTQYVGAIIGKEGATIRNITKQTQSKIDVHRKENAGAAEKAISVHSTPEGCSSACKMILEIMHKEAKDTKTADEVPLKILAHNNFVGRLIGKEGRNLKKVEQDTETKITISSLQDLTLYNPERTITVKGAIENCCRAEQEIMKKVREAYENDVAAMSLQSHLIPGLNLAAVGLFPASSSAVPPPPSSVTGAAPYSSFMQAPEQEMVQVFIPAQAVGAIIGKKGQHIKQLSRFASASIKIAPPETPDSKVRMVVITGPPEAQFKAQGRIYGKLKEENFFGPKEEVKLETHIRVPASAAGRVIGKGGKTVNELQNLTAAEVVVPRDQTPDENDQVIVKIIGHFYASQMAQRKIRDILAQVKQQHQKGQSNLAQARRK

Consider “GGAAAUUAGGGCCCAAUUAAUAAUCAGCAAGAAUUUGAUCGUUCCAGUUCCCACUUGGAGGCCUUUCAUCCCUCGGGUGUGCUAUGGAUGGCUUCUAACAAAAACUACACAUAUGUAUUCCUGAUCGCCAACCUUUCCCCCACCAGCUAA [P5 RNA]”, for which the binding signal with CRD-BP (IMP1) (mouse) [1] was determined as 15 % bound. As for “GGAAAUUAGGGCCCAAUUAAUAAUCAGCAAGAAUUUGAUCGUUCCAGUUCCCACUUGGAGGCCUUUCAUCCCUCGGGUGUGCUAUGGAUGGCUUCUAACAAAAACUACACAUAUGUAUUCCU [P4 RNA]”, the binding entry with CRD-BP (IMP1) (mouse) [1] is listed as “no binding”.

Consider “GGAAAUUAGGGCCCAAUUAAUAAUCAGCAAGAAUUUGAUCGUUCCAGUUCCCACUUGGAGGCCUUUCAUCCCUCGGGUGUGCUAUGGAUGGCUUCUAACAAAAACUACACAUAUGUAUUCCUGAUCGCCAACCUUUCCCCCACCAGCUAAGGACAUUUCCCAGGGUUAAUAGGGCCUGGU [P6 RNA]”, for which the binding entry with CRD-BP (IMP1) (mouse) [1] was “binds”.

“GGAAAUUAGGGCCCAAUUAAUAAUCAGCAAGAAUUUGAUCGUUCCAGUUCCCACUUGGAGGC [P2 RNA]” displayed a binding signal in the data set with CRD-BP (IMP1) (mouse) [1] of 5 % bound.

Regarding “GGAAAUUAGGGCCCAAUUAAUAAUCAGCAAGAAUUUGAUCGUUCCAGUUCCCACUUGGAGGCCUUUCAUCCCUCGGGUGUGCUAUGGAUGGCUUCUAACAAAAACUACACAUAUGUAUUCCUGAUCGCCAACCUUUCCCCCACCAGCUAAGGACAUUUCCCAGGGUUAAUAGGGCCUGGUCCCUGGGAGGAAAUUU [CD44 Fragment 4 RNA]”, in the data set with CRD-BP (IMP1) (mouse) [2], the binding result was “binds”. The equilibrium dissociation constant (Kd) in the data set with CRD-BP (IMP1) (mouse) [1] was found to be 645 nM.
